Residue numbers refer to the chain shown, from its start. In names and notes the source's numbering stands.
B1: Pyrococcus horikoshii TET3 aminopeptidase (PhTET3), hydrogenated (enzyme)
chain: MDLKGGESMVDWKLMQEIIEAPGVSGYEHLGIRDIVVDVLKEVADEVKVDKLGNVIAHFKGSSPRIMVAAHMDKIGVMVNHIDKDGYLHIVPIGGVLPETLVAQRIRFFTEKGERYGVVGVLPPHLRRGQEDKGSKIDWDQIVVDVGASSKEEAEEMGFRVGTVGEFAPNFTRLNEHRFATPYLDDRICLYAMIEAARQLGDHEADIYIVGSVQEEVGLRGARVASYAINPEVGIAMDVTFAKQPHDKGKIVPELGKGPVMDVGPNINPKLRAFADEVAKKYEIPLQVEPSPRPTGTDANVMQINREGVATAVLSIPIRYMHSQVELADARDVDNTIKLAKALLEELKPMDFTP
notes: PhTET3, lysyl-aminopeptidase of the M42 family, Pyrococcus horikoshii; It was studied as a dimer (de-oligomerization buffer) and as a dodecamer; also called hPhTET3; hPhTET3 12s; source: E. coli, purified (heating at 85°C, Resource Q, Superose 6; as described by Durá et al., 2009)
B2: Pyrococcus horikoshii TET2 aminopeptidase (PhTET2), wild type (enzyme)
chain: MEVRNMVDYELLKKVVEAPGVSGYEFLGIRDVVIEEIKDYVDEVKVDKLGNVIAHKKGEGPKVMIAAHMDQIGLMVTHIEKNGFLRVAPIGGVDPKTLIAQRFKVWIDKGKFIYGVGASVPPHIQKPEDRKKAPDWDQIFIDIGAESKEEAEDMGVKIGTVITWDGRLERLGKHRFVSIAFDDRIAVYTILEVAKQLKDAKADVYFVATVQEEVGLRGARTSAFGIEPDYGFAIDVTIAADIPGTPEHKQVTHLGKGTAIKIMDRSVICHPTIVRWLEELAKKHEIPYQLEILLGGGTDAGAIHLTKAGVPTGALSVPARYIHSNTEVVDERDVDATVELMTKALENIHELKI
modifications: dPhTET2: random-fractional deuteration, final level approximately 75%; hPhTET2: hydrogenated
notes: PhTET2, leucyl-aminopeptidase of the M42 family, Pyrococcus horikoshii; It was studied as a dimer (de-oligomerization buffer) and as a dodecamer; The preparation of hPhTET2 is not described separately; also called dPhTET2; hPhTET2; source: E. coli, purified (heating at 85°C, Resource Q, Superose 6); dPhTET2 grown in minimal medium with 85% D2O
B3: PhTET2 pentamutant (R217S, R220S, F224S, H248S and I292A) (enzyme, Pyrococcus horikoshii)
chain: B2 chain with R217S, R220S, F224S, H248S, I292A
modifications: deuterated form: random-fractional deuteration, final level approximately 75%; a hydrogenated form was also used
notes: PhTET2, leucyl-aminopeptidase of the M42 family, Pyrococcus horikoshii, with five mutations at the interface between the dimers; The mutant was designed in Appolaire et al. (2013) to slow the oligomerization process; Its deuterated and hydrogenated preparations are kept as one molecule; also called pentamutant PhTET2; mutated PhTET2; source: E. coli, purified (heating at 85°C, Resource Q, …)

Columns and labels:
[1] = molecular target: the molecule itself; test: small-angle neutron scattering (SANS); homododecameric reference samples: dPhTET2 12s in 42% D2O and hPhTET3 12s in 100% D2O; 20 mM Tris-HCl, 150 mM NaCl pH 7.5; 20°C
[2] = molecular target: the molecule itself; test: small-angle neutron scattering (SANS) with contrast variation; peak 1 (particle 1) heterododecamer of dPhTET2 and hPhTET3; 4.5 mg/ml; 20 mM Tris-HCl, 150 mM NaCl pH 7.5; 0, 42, 70 and 100% D2O; 20 to 80°C; mass calibrated against water; models scored with CRYSON
[3] = molecular target: the molecule itself; test: small-angle neutron scattering (SANS) with contrast variation; peak 2 (particle 2) heterododecamer of dPhTET2 and hPhTET3; 4.5 mg/ml; 20 mM Tris-HCl, 150 mM NaCl pH 7.5; 0, 49, 70 and 100% D2O; 20 to 80°C; mass calibrated against water; models scored with CRYSON
[4] = molecular target: B1; test: small-angle neutron scattering (SANS) with contrast variation; peak 1 (particle 1) heterododecamer of dPhTET2 and hPhTET3; 4.5 mg/ml; 20 mM Tris-HCl, 150 mM NaCl pH 7.5; 0, 42, 70 and 100% D2O; 20 to 80°C; mass calibrated against water; models scored with CRYSON; settings: both partners purified
[5] = molecular target: the molecule itself; test: SEC; Superose 6 (native polyacrylamide gels also run) after dialysis of the dodecamers against de-oligomerization buffer: 50 mM CAPS, 20 mM NaCl, 20 mM EDTA pH 10
[6] = molecular target: B1; test: small-angle neutron scattering (SANS) with contrast variation; peak 2 (particle 2) heterododecamer of dPhTET2 and hPhTET3; 4.5 mg/ml; 20 mM Tris-HCl, 150 mM NaCl pH 7.5; 0, 49, 70 and 100% D2O; 20 to 80°C; mass calibrated against water; models scored with CRYSON; settings: both partners purified
[7] = molecular target: the molecule itself; test: small-angle neutron scattering (SANS); 1:1 mixtures of preformed homododecameric deuterated and hydrogenated PhTET2 (wild type or pentamutant) in 42% or 100% D2O; temperature raised from 20 to 80°C, 4 h at each temperature

stoichiometry N [4] | stoichiometry N [6] | Binder | stoichiometry N [1] | stoichiometry N [2] | stoichiometry N [3] | stoichiometry N [5] | stoichiometry N [7]
 |  | B1 | 12 | 6 | 2 |  | 
1 dPhTET2:hPhTET3 (6:6) | 2 dPhTET2:hPhTET3 (8:4) | B2 | 12 | 6 |  | 2 | 
 |  | B3 |  |  |  |  | 12

Reference: publication PMC4220976, “Small-angle neutron scattering reveals the assembly mode and oligomeric architecture of TET, a large, dodecameric aminopeptidase” (Acta Crystallographica Section D: Biological Crystallography, 2014)
